Laboratory results from the supplement of paper PMC9170038.

System: MS2 coat protein
Experiment: apparent KD of MS2 coat protein; designed switch direction (-1 OFF switch, 1 ON switch): 1; higher = weaker reporter binding
Outline: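 Apparent KD, taken as the median over clusters for each design, was obtained by curve-fitting normalised cluster fluorescence. Designed RNA switches had been transcribed on Illumina chips by stalled E. coli RNA polymerase and titrated with SNAP-549-labelled MS2 coat protein, doubling from 0.7 or 1.5 nM to 3 µM.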

[1] = Eterna round: R95, input ligand: FMN 200 uM
[2] = Eterna round: R95, input ligand: microRNA oligo, concentration not stated
[3] = Eterna round: R95, input ligand: none
[4] = input ligand: microRNA oligo, concentration not stated

| Sequence | apparent KD of MS2 coat protein [1] | apparent KD of MS2 coat protein [2] | apparent KD of MS2 coat protein [3] | apparent KD of MS2 coat protein (input ligand: FMN 200 uM) | apparent KD of MS2 coat protein [4] | apparent KD of MS2 coat protein (input ligand: none) |
| --- | --- | --- | --- | --- | --- | --- |
| GUGCUACAUGAGGAUCACCCAUGUACAAAUGUACGAGGAUAUGCAUGGGCUAAUGCUGGUGCAGAAGGCGUAGCGC [Pin2Pin #7] (puzzle: Same State 1) | 0.018 µM | 0.0339 µM | 0.0415 µM |  |  |  |
| GCAAUGGCGGUAGGAUAUCUAGGAUAUGGGAAAGACUAAGUCUGUAGGUCACCUAACCCAGAAGGAGAGAAGGACCCUGUAAGG [pwkr ssNG2 2FMN + F9.24] (Eterna round: R96, puzzle: Same State NG 2) |  |  |  | 0.0432 µM | 0.00931 µM | 0.0308 µM |
| AUUUAACAAGCUUUUUGCUCGUCUUAUAAACAUGAGGAUCACCCAUGUAAUAGCGUGAGAGUAAAUAAUUUAAUAAU [JMF 98] (puzzle: Sensor for hsa-mir-208a) | 0.0129 µM | 0.0532 µM |  |  |  |  |
| UAAAUACAUGAGGAUCACCCAUGUCAAAAGACAUGAGGAUAUGUACAGUCUUCGGUCUGUACAGAAGGCAUGAAUA [salish99_ss1_r3_097] (puzzle: Same State 1) |  | 0.434 µM |  |  |  |  |
| ACAUGAGACGCAGGAUAUCUUGUACCUACAUGUGACAUGAGGAUCACCCAUGUGGUAAGUAUGAUAGAGAAGGGCGAGAUAUGU [Equivalance 56 - Jieux - Same State NG 2] (Eterna round: R96, puzzle: Same State NG 2) |  |  |  | 0.0197 µM | 0.0316 µM | 0.0589 µM |
| GCGGAAUGGUGUGACAUGAGGAUCACCCAUGUAACCUCAUGUAAGGAUAUCGGGAAGAAGAAAACCGAGAAGGUACGGUGACGC [AK SSNG3-V2-28] (Eterna round: R96, puzzle: Same State NG 3) |  |  |  | 0.197 µM | 0.145 µM | 0.165 µM |
| AUUAUACAUGAGGAUCACCCAUGUAAUUAAUUAAUUAAGAUCAAGGAUAUCAGCUCGAUUAGAGCUGAGAAGGUGAUCACAUGU [SSNG3/20-B2] (Eterna round: R96, puzzle: Same State NG 3) |  |  |  |  | 0.17 µM |  |
| UUGAAGAAUUAAGGAUAUCGAGUACAUAUGUUAAACAUGAGGAUCACCCAUGUGGGUUGCGGUAUCGAGAAGGUAAAAUACAAG [Mat - Same State NG 2 - JL mod - D58] (Eterna round: R96, puzzle: Same State NG 2) |  |  |  | 0.0288 µM | 0.0266 µM | 0.0338 µM |
| AAAACAUGAGGAUCACCCAUGUGUAAAAGAUACCGGAUGGUGCAGGAUAUAUCCCAUUAAAGUGGAUAGAAGGGUGGCAUCAAG [Eternabot solution 46] (Eterna round: R96, puzzle: Same State NG 3) |  |  |  | 0.0208 µM | 0.0325 µM | 0.0321 µM |
| AGCGAACAGGCUAACAUGAGGAUCACCCAUGUGGACUCAUGUUAGGAUAUCGGGAAGGAGGAAACCGAGAAGGGACGGUGAGCC [AK SSNG3-V2-46] (Eterna round: R96, puzzle: Same State NG 3) |  |  |  | 0.332 µM | 0.0146 µM | 0.0306 µM |
| GCUAGGAAUUAAGCCAACAUGAGGAUCACCCAUGUAUGUUGGUAGGAUAUCGUUUGCAAAGCAAACGAGAAGGGCUAACCUAGC [Mat - Same State NG 3 - JL Mod - D72] (Eterna round: R96, puzzle: Same State NG 3) |  |  |  | 0.0809 µM | 0.0558 µM | 0.0853 µM |
| CCCUCACAUGAGGAUCACCCAUGUCCUAGCAGGUCAGGAUAUAGCCCGCAUCCGCUGCGGCUAGAAGGGACAGCUG [JR_SS001_Sub610] (Eterna round: R96, puzzle: Same State 1) |  |  |  | 0.148 µM | 0.135 µM | 0.176 µM |
| GCUCGGCUGAUGGCCUACAUGAGGAUCACCCAUGUGAGUGGGCAGGAUAUCUAGAUUAAGGAUGUAGAGAAGGGCCUGCCGAGC [SameState NG3 #37] (Eterna round: R96, puzzle: Same State NG 3) |  |  |  | 0.708 µM | 0.131 µM | 0.496 µM |
| GGAGCCGGCACUGAGGAUAUUCAUAUUAAAACAUGAGGAUCACCCAUGUAGGCCAGAAGGCCUUGGGAGAAGGCAGGUCGGCUCG [Arinin] (Eterna round: R96, puzzle: Same State 2) |  |  |  | 0.02 µM | 0.188 µM | 0.283 µM |
| GAAAAGACAUGAGGAUCACCCAUGUGAAAGCCUAAGGGCCCACAGGAUAUACAGUGAAAAGCACUGUAGAAGGGUGAUAAAGAC [Ordibidi] (Eterna round: R96, puzzle: Same State NG 3) |  |  |  | 0.228 µM | 0.271 µM | 0.172 µM |
| GGACGUCAUCUCAAUAAUUAAACAUGAGGAUCACCCAUGUCACAGGAUAUGGAUCCUAAUUGGAUCCAGAAGGGUGUGACGUCC [Fiskers NG3ss - 40] (Eterna round: R96, puzzle: Same State NG 3) |  |  |  | 0.0543 µM | 0.056 µM | 0.0661 µM |

| Sequence | apparent KD of MS2 coat protein [1] | apparent KD of MS2 coat protein [2] | apparent KD of MS2 coat protein [3] | apparent KD of MS2 coat protein (input ligand: FMN 200 uM) | apparent KD of MS2 coat protein [4] | apparent KD of MS2 coat protein (input ligand: none) |
| --- | --- | --- | --- | --- | --- | --- |
| AGUCCAGCCUGAGCUGGACAAGAGCAUGUACAUGAGGAUCACCCAUGUCAUGUACAAGCUUUUUGCUCGUCUUAAUA [Zipper 49 - 2] (puzzle: Sensor for hsa-mir-208a) | 0.47 µM | 0.0149 µM | 0.529 µM |  |  |  |
| GGUCCCUACGCACAGGAUAUUCUUUUGGCAACAUGAGGAUCACCCAUGUGUGCCGAUCAUGGUUAGAAGAAGGGUGGUAGGGACC [Usisus] (Eterna round: R96, puzzle: Same State 2) |  |  |  | 0.01 µM | 0.0105 µM | 0.0198 µM |
| UAGAAACAUGAGGAUCACCCAUGUGGGUUAAACACAGGAUAUCACACCAAACGAAAGGCGUGAGAAGGGUGACCGU [Xeonreais] (puzzle: Same State 1) | 0.062 µM | 0.0412 µM | 0.0391 µM |  |  |  |
| GCUCGACGUGUUGUCUACAUGAGGAUCACCCAUGUAGGUGCGGAGGAUAUCUACGUGCUUUAUGUAGAGAAGGUCGUGUCGAGC [SameState NG3 #87] (Eterna round: R96, puzzle: Same State NG 3) |  |  |  | 0.0324 µM | 0.0553 µM | 0.0664 µM |
| CGAUGAAACUAAGGAAGAAGAGUUGAAGUACAUGAGGAUCACCCAUGUCAGAGCUUUUUGCUCGUCAUGAACAGGAA [JR_SHM208a_Sub005] (puzzle: Sensor for hsa-mir-208a) | 0.0519 µM | 0.0322 µM | 0.0528 µM |  |  |  |
| UGUUGUAUUACAGGAUAUCUAUGAUUUUUAUUAAGAGAAGGGUAUUCACAUGAGGAUCACCCAUGUAUAUACGAGGAAGUUGUG [JMF's solution 70] (Eterna round: R96, puzzle: Same State NG 1) |  |  |  |  | 0.0256 µM |  |
| GUGGCGGGUUGAGGAUAUUGGUUGCAUAUGUUUAACAUGAGGAUCACCCAUGUGGGUUGCGGUUUCGAGAAGGUAGGUUGCUGG [salish99_SSNG2_r04_044] (Eterna round: R96, puzzle: Same State NG 2) |  |  |  | 0.155 µM | 0.0953 µM | 0.14 µM |
| CGCAGGCACGUAGGAUAUCUAGCGUGGGAGGCUAGAGAAGGAUGGAAUAACAUGAGGAUCACCCAUGUCGCCUCGCGGAAAUAA [Diorverire] (Eterna round: R96, puzzle: Same State NG 1) |  |  |  | 0.0155 µM | 0.0174 µM | 0.0328 µM |
| CGGAAAAUCGUAGGAUAUCUAGGAUAUGAACGAGGAUCACCCGAGCAGCAUCAGCGCAUCAGAGGAGAGAAGGACGAUGAUGCG [pwkr ssNG2 2F5 2FMN.5] (Eterna round: R96, puzzle: Same State NG 2) |  |  |  | 1.93 µM | 1.1 µM | 1.51 µM |
| GCUACAUCGAGCGAGGAUAUGCGGCGUAUAACAUGAGGAUCACCCAUGUCCUUCGAAUCGAGUACGCAGAAGGCGCUACGGUAGC [Big Heel] (puzzle: Same State 2) | 0.0776 µM | 0.277 µM | 0.551 µM |  |  |  |
| AGAUCAUGACGAGGAUAUGGAACAUGAGGAUCACCCAUGUAUGUUCCAUAACGCGAAUAAAGAAUCCAGAAGGCGUCGUGGUCA [Mat - Same State NG 2 - JL mod - D30] (Eterna round: R96, puzzle: Same State NG 2) |  |  |  | 0.0102 µM | 0.0789 µM | 0.0891 µM |
| CGGGUAAUCGUAGGAUAUCUAGGAUAUGAACGAGGAUCACCCGAGCAGCAUCAGCGCAUCAGAGGAGAGAAGGACGAUGAUGCG [pwkr ssNG2 2F5 2FMN.18] (Eterna round: R96, puzzle: Same State NG 2) |  |  |  | 0.164 µM | 0.199 µM | 0.47 µM |
| AAACACAUGAGGAUCACCCAUGUAGCACCAUUGAGGCGCACAUAGGAUAUCCGGUCCAAAAGACCGGAGAAGGGUGAAAGAAAA [Veandi] (Eterna round: R96, puzzle: Same State NG 3) |  |  |  | 0.0597 µM | 0.371 µM | 0.328 µM |
| GGUCCAGCCUGAGCUGGACAAAAGCAUGUACAUGAGGAUCACCCAUGUCAUGUACAAGCUUUUUGCUCGUCUUAAAU [Mat - hsa-mir-208a - 84] (puzzle: Sensor for hsa-mir-208a) | 0.495 µM | 0.0161 µM | 0.8 µM |  |  |  |
| UCAAGCGCACAUGAGGAUCACCCAUGUACCGAGAGUCGUCGUCGGAGAAUGAUGCAUGCUGCUGCUAUUCCACAUUA [Default title] (puzzle: Sensor for hsa-mir-208a version 2) | 0.0895 µM | 0.0668 µM | 0.0853 µM |  |  |  |
